# Experimental data: patent US20210122814A1
# Experiments:
# [1] = biological target: Cell-associated proTGFβ1 (hGARP-proTGFβ1 and hLRRC33-proTGFβ1); assay: BLI (Octet); Cell AVRG over ECM AVRG
# [2] = biological target: Matrix-associated proTGFβ1 (hLTBP1-proTGFβ1 and hLTBP3-proTGFβ1); assay: BLI (Octet)
# [3] = biological target: Cell-associated proTGFβ1 (hGARP-proTGFβ1 and hLRRC33-proTGFβ1); assay: BLI (Octet)
# [4] = biological target: Cell-associated proTGFβ1 (hGARP-proTGFβ1 and hLRRC33-proTGFβ1); assay: MSD-SET, hIgG4; Cell AVRG over ECM AVRG
# [5] = biological target: Matrix-associated proTGFβ1 (hLTBP1-proTGFβ1 and hLTBP3-proTGFβ1); assay: MSD-SET, hIgG4
# [6] = biological target: Cell-associated proTGFβ1 (hGARP-proTGFβ1 and hLRRC33-proTGFβ1); assay: MSD-SET, hIgG4
G/D (fold bias) [1] [fold],ECM AVRG (average KD) [2] [nM],Cell AVRG (average KD) [3] [nM],G/D (fold bias) [4] [fold],ECM AVRG (average KD) [5] [nM],Cell AVRG (average KD) [6] [nM],Binder
2.61,0.246,0.644,,,,"Ab21 (antibody, V domains shown) VH: EVQLVESGGGLVQPGGSLRLSCAASGFTFSSFSMDWVRQAPGKGLEWVSYISPDASTIYYADSVKGRFTISRDNAKNSLYLQMNSLRAEDTAVYYCARGVLDYGDMLDPWGQGTLVTVSS VL: DIQMTQSPSSLSASVGDRVTITCQASQDITNYLNWYQQKPGKAPKLLIYDASNLETGVPSRFSGSGSGTDFTFTISSLQPEDIATYYCQQADNHPPWTFGGGTKVEIK"
2.31,0.296,0.684,2.8,0.029,0.081,"Ab30 (antibody, V domains shown) VH: EVQLVESGGGLVQPGGSLRLSCAASGFTFSSFSMDWVRQAPGKGLEWVSYISPDASTIYYADSVKGRFTISRDNAKNSLYLQMNSLRAEDTAVYYCARGTLDYGDMLDPWGQGTLVTVSS VL: DIQMTQSPSSLSASVGDRVTITCQASQDITNYLNWYQQKPGKAPKLLIYDASNLETGVPSRFSGSGSGTDFTFTISSLQPEDIATYYCQQADNHPPWTFGGGTKVEIK"
2.03,0.443,0.897,,,,"Ab23 (antibody, V domains shown) VH: EVQLVESGGGLVQPGGSLRLSCAASGFTFSSFSMNWVRQAPGKGLEWVSYISPSADTIYYADSVKGRFTISRDNAKNTLYLQMNSLRAEDTAVYYCARGVLDYGDMLDPWGQGTLVTVSS VL: DIQMTQSPSSLSASVGDRVTITCQASQDITNYLNWYQQKPGKAPKLLIYDASNLETGVPSRFSGSGSGTDFTFTISSLQPEDIATYYCQQADNHPPWTFGGGTKVEIK"
2.42,0.222,0.537,4.35,0.023,0.1,"Ab24 (antibody, V domains shown) VH: EVQLVESGGGLVQPGRSLRLSCAASGFTFSSFAMYWVRQAPGKGLEWVSYISPDASTIYYADSVKGRFTISRDNAKNSLYLQMNSLRAEDTAVYYCARGVLDYGDMLDPWGQGTLVTVSS VL: DIQMTQSPSSLSASVGDRVTITCQASQDITNYLNWYQQKPGKAPKLLIYDASNLETGVPSRFSGSGSGTDFTFTISSLQPEDIATYYCQQADNHPPWTFGGGTKVEIK"
1.97,0.155,0.304,2,0.012,0.024,"Ab29 (antibody, V domains shown) VH: EVQLVESGGGLVQPGRSLRLSCAASGFTFSSFAMNWVRQAPGKGLEWVSYISPDASTIYYAGSVKGRFTISRDNAKNSLYLQMNSLRAEDTAVYYCVRAVLDYGDMLDPWGQGTLVTVSS VL: DIQMTQSPSSLSASVGDRVTITCQASQDITNYLNWYQQKPGKAPKLLIYDASNLETGVPSRFSGSGSGTDFTFTISSLQPEDIATYYCQQADNHPPWTFGGGTKVEIK"
2.43,0.184,0.449,,,,"Ab25 (antibody, V domains shown) VH: EVQLVESGGGLVQPGGSLRLSCAASGFTFGSFSMDWVRQAPGKGLEWVSYISPDASTIYYADSVKGRFTISRDNAKNSLYLQMNSLRAEDTAVYYCARGVLDYGDMLDPWGQGTLVTVSS VL: DIQMTQSPSSLSASVGDRVTITCQASQDITNYLNWYQQKPGKAPKLLIYDASNLETGVPSRFSGSGSGTDFTFTISSLQPEDIATYYCQQADNHPPWTFGGGTKVEIK"
1.84,0.328,0.603,,,,"Ab28 (antibody, V domains shown) VH: EVQLVESGGGLVQPGGSLRLSCAASGFTFSSFSMDWVRQAPGKGLEWVSYISPDASTIYYADSVKGRFTISRDNAKNSLYLQMNSLRAEDTAVYYCVRGVLDYGDMLDPWGQGTLVTVSS VL: DIQMTQSPSSLSASVGDRVTITCQASQDITNYLNWYQQKPGKAPKLLIYDASNLETGVPSRFSGSGSGTDFTFTISSLQPEDIATYYCQQADNHPPWTFGGGTKVEIK"
2.08,0.145,0.302,3,0.009,0.027,"Ab33 (antibody, V domains shown) VH: EVQLVESGGGLVQPGGSLRLSCAASGFTFSSFSMNWVRQAPGKGLEWVSYISPSADTIYYADSVKGRFTISRDNAKNTLYLQMNSLRAEDTAVYYCAHGVLDYGDMLDPWGQGTLVTVSS VL: DIQMTQSPSSLSASVGDRVTITCQASQDITNYLNWYQQKPGKAPKLLIYDASNLETGVPSRFSGSGSGTDFTFTISSLQPEDIATYYCQQADNHPPWTFGGGTKVEIK"
2.5,0.197,0.492,2.77,0.026,0.072,"Ab26 (antibody, V domains shown) VH: EVQLVESGGGLVQPGGSLRLSCAASGFTFSSFSMDWVRQAPGKGLEWVSYISPDASTIYYADSVKGRFTISRDNAKNTLYLQMNSLRAEDTAVYYCARGVLDYGDMLDPWGQGTLVTVSS VL: DIQMTQSPSSLSASVGDRVTITCQASQDITNYLNWYQQKPGKAPKLLIYDASNLETGVPSRFSGSGSGTDFTFTISSLQPEDIATYYCQQADNHPPWTFGGGTKVEIK"
1.74,0.208,0.361,,,,"Ab27 (antibody, V domains shown) VH: EVQLVESGGGLVQPGGSLRLSCAASGFTFSFYAMNWVRQAPGKGLEWVSYISPDASTIYYADSVKGRFTISRDNAKNSLYLQMNSLRAEDTAVYYCARGVLDYGDMLDPWGQGTLVTVSS VL: DIQMTQSPSSLSASVGDRVTITCQASQDITNYLNWYQQKPGKAPKLLIYDASNLETGVPSRFSGSGSGTDFTFTISSLQPEDIATYYCQQADNHPPWTFGGGTKVEIK"
2.47,0.242,0.597,1.6,0.032,0.051,"Ab32 (antibody, V domains shown) VH: EVQLVESGGGLVQPGGSLRLSCAASGFTFSSFSMNWVRQAPGKGLEWVSYISPSADTIYYADSVKGRFTISRDNAKNTLYLQMNSLRAEDTAVYYCARGVWDMGDMLDPWGQGTLVTVSS VL: DIQMTQSPSSLSASVGDRVTITCQASQDITNYLNWYQQKPGKAPKLLIYDASNLETGVPSRFSGSGSGTDFTFTISSLQPEDIATYYCQQADNHPPWTFGGGTKVEIK"
2.38,0.208,0.495,3.41,0.017,0.058,"Ab31 (antibody, V domains shown) VH: EVQLVESGGGLVQPGGSLRLSCAASGFTFSSFSMDWVRQAPGKGLEWVSYISPDASTIYYADSVKGRFTISRDNAKNTLYLQMNSLRAEDTAVYYCARAVLDYGDMLDPWGQGTLVTVSS VL: DIQMTQSPSSLSASVGDRVTITCQASQDITNYLNWYQQKPGKAPKLLIYDASNLETGVPSRFSGSGSGTDFTFTISSLQPEDIATYYCQQADNHPPWTFGGGTKVEIK"
2.15,0.324,0.695,2.71,0.042,0.114,"Ab22 (antibody, V domains shown) VH: EVQLVESGGGLVQPGGSLRLSCAASGFTFGSFSMNWVRQAPGKGLEWVSYIHSDASTIYYADSVKGRFTISRDNAKNSLYLQMNSLRAEDTAVYYCARGVLDYGDMLDPWGQGTLVTVSS VL: DIQMTQSPSSLSASVGDRVTITCQASQDITNYLNWYQQKPGKAPKLLIYDASNLETGVPSRFSGSGSGTDFTFTISSLQPEDIATYYCQQADNHPPWTFGGGTKVEIK"
,,,0.42,5.05,2.3,"Ab4 (antibody, IgG4, V domains shown) VH: EVQLVESGGGLVQPGGSLRLSCAASGFTFSSYSMNWVRQAPGKGLEWVSYISSSSSTIYYADSVKGRFTISRDNAKNSLYLQMNSLRAEDTAVYYCARGVLDYGDMLDPWGQGTLVTVSS VL: DIQMTQSPSSLSASVGDRVTITCQASQDITNYLNWYQQKPGKAPKLLIYDASNLETGVPSRFSGSGSGTDFTFTISSLQPEDIATYYCQQADNHPPWTFGGGTKVEIK"
